We go through two molecules from EP4265717A1.

Assay [1] addresses mobilized colistin resistance (MCR)-1 protein. Nature of the assay: indirect ELISA, plate coated with 0.2 ug/mL MCR-1 protein, purified antibody in doubling dilutions. The settings on record: scale: reciprocal dilution. On the technique in general: An ELISA detects its analyte on a solid surface through an enzyme-linked reagent.
Assay [2] addresses mobilized colistin resistance (MCR)-2 protein. Nature of the assay: indirect ELISA, plate coated with 0.2 ug/mL MCR-2 protein, purified antibody in doubling dilutions. The settings on record: scale: reciprocal dilution.

B1: anti-MCR-1/MCR-2 protein mouse mAb 2DG5 (antibody, V domains shown)
VH: VKLQESGPGLVKPSQSLSLTCTVTGYSITSDYAWNWIRQFPGNKLEWMGQISDSAVTTYNPSLKSRISINRDTSKNQFFLQLNSVTPEDTATYYCARRNFYGYNFFDYWGRGTSLTVSS
VL: DIQMTQTTSSLSASLGDRVTINCRASQDINNYLNWYQQKPDGTVKLLIYYTSRLHSGVPSRFSGSGSRTDYSLTISNLEREDIATYFCQQGKTIHPWTFGGGTKLDIKR
Regarding B1, the titer in assay [1] and in assay [2] was > 1.28e+06 in each case.

B2: anti-MCR-1/MCR-2 protein mouse mAb 1IB10 (antibody, V domains shown)
VH: VKLQQSGPELVKPGASVKMSCRASGYTFTSYVMHWVKQKPGQGLEWIGYFNPYNDGANYNEKFKGKATLSSDKSSGTAYMDLSSLTSEDSAVYYCARGPYGNYAMDYWGQGTSVTVSS
VL: DVLMTQTPLSLPVSLGDQASISCRSSQNIVCSYGNPCLEWYLQKPGQSPKLLIYKVSNRFSGVPDRFSGSGSGTDFTLKISRVEAEDLGVYYCFQSSHVPWTFGGGTELEIKR
As to B2, the titer in assay [1] and in assay [2] was > 1.28e+06 each time.
